T1: recombinant FX deletion mutant having the furin cleavage site Arg-Val-Thr-Arg/Ile (rFXΔ^RVTR/I)
T1 chain: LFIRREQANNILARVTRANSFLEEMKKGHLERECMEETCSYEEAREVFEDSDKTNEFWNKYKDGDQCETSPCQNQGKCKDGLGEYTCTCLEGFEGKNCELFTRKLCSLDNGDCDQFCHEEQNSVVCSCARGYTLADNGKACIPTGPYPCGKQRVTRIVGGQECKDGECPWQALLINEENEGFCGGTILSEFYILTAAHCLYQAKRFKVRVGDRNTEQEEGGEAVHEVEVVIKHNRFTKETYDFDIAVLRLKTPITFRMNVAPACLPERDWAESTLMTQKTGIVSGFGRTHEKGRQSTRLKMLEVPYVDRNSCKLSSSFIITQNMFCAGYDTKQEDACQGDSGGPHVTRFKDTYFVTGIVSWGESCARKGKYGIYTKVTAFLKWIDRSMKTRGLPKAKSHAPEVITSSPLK


Assays:
[1] = biological target: recombinant factor X (rFX), expressed in CHO cells from human factor X cDNA (human) (UniProt P00742); test: cell-based or functional assay
[2] = biological target: T1, recombinant FX deletion mutant having …

Molecule	functional portion of rFX (%), incubation 0 days [1] [%]	functional portion of rFX (%), incubation 1 day [1] [%]	functional portion of rFX (%), incubation 2 days [1] [%]	functional portion of rFX (%), incubation 3 days [1] [%]	functional portion of rFX (%), incubation 4 days [1] [%]	processing/activation of rFXΔ^RVTR/I (Western blot; 6, 24, 48, 72 hours at 37° C.) [2]
rfurin ÿTM6xHis (r-furin derivative, as CHO cell culture supernatant; patent application EP 0 775 750) (from UniProt P09958 108-707) (enzyme)	61	73	79	81	86	
r-furinÿCys-spacer-10xHis (purified r-furin derivative; patent application EP-0 775 750-A2) (protein) DVYQEPTDPKFPQQWYLSGVTQRDLNVKAAWAQGYTGHGIVVSILDDGIEKNHPDLAGNYDPGASFDVNDQDPDPQPRYTQMNDNRHGTRCAGEVAAVANNGVCGVGVAYNARIGGVRMLDGEVTDAVEARSLGLNPNHIHIYSASWGPEDDGKTVDGPARLAEEAFFRGVSQGRGGLGSIFVWASGNGGREHDSCNCDGYTNSIYTLSISSATQFGNVPWYSEACSSTLATTYSSGNQNEKQIVTTDLRQKCTESHTGTSASAPLAAGIIALTLEANKNLTWRDMQHLVVQTSKPAHLNANDWATNGVGRKVSHSYGYGLLDAGAMVALAQNWTTVAPQRKCIIDILTEPKDIGKRLEVRKTVTACLGEPNHITRLEHAQARLTLSYNRRGDLAIHLVSPMGTRSTLLAARPHDYSADGFNDWAFMTTHSWDEDPSGEWVLEIENTSEANNYGTLTKFTLVLYGTAPEG						In the presence of the r-furin derivative (FIG. 10A), a 35 kD protein band appears already after 6 hours of incubation (lane 5), which corresponds to the form of the FX heavy chain
